Data reported in patent US20260232820A1 (MEDICENNA THERAPEUTICS, published 2026).

What was measured:
Fc-IL13 (1:1 KIH) = biological target: T1, Fc-IL13 (1:1 KIH) (human, UniProt P35225 34-146); test: SPR
T1 construct: also called Fc-IL13 KIH
Experimental: Receptor binding was assessed using surface plasmon resonance (SPR) in which test constructs (i.e., Fc-MDNA132) were bound onto SPR chip surface and receptors (i.e., IL-13Rα1 and IL-13Rα2) were used as flow analytes (data not shown).
Representative SPR sensorgrams of Fc-MDNA132 and Fc-51.13 binding to […] and IL-13Rα2 is shown in (data not shown) and KD values are tabulated in Table 12. Variants contain the 5 core mutations of MDNA132 and an added mutation at amino acid position indicated in the name of the constructs.

[1] = biological target: IL-13Rα2 on engineered EMT6 cells (EMT6-IL13Rα2); test: cell-based or functional assay
[2] = biological target: T2, IL-13Rα2 on human A375 and U87 cells (human, UniProt Q14627 27-380); test: cell-based or functional assay
T2 sequence (looked up): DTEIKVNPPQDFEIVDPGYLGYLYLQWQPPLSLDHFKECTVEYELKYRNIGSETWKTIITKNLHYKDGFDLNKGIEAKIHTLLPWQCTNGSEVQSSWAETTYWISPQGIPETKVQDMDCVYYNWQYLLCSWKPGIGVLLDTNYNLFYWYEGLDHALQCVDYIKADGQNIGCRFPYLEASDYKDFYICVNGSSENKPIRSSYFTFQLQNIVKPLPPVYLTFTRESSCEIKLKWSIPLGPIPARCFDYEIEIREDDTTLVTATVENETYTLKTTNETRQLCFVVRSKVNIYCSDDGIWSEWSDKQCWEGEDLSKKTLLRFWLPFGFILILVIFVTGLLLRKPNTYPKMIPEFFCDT

[3] = biological target: IL-13Rα2 on engineered EMT6 cells (EMT6-IL13Rα2); test: cell-based or functional assay; remark: listed apart in the source
[4] = biological target: T2, IL-13Rα2 on human A375 and U87 cells; test: cell-based or functional assay; remark: listed apart in the source

B1: human IL-13Rα1 (receptor, UniProt P78552 22-343, looked up)
chain: GGGGAAPTETQPPVTNLSVSVENLCTVIWTWNPPEGASSNCSLWYFSHFGDKQDKKIAPETRRSIEVPLNERICLQVGSQCSTNESEKPSILVEKCISPPEGDPESAVTELQCIWHNLSYMKCSWLPGRNTSPDTNYTLYYWHRSLEKIHQCENIFREGQYFGCSFDLTKVKDSSFEQHSVQIMVKDNAGKIKPSFNIVPLTSRVKPDPPHIKNLSFHNDDLYVQWENPQNFISRCLFYEVEVNNSQTETHNVFYVQEAKCENPEFERNVENTSCFMVPGVLPDTLNTVRIRVKTNKLCYEDDKLWSNWSQEMSIGKKRNST
notes: also called IL-13αR1
Q: With B1 as the binder, how does the Kd (Fc-IL13 (1:1 KIH)) read?
A: Its Kd is 470 nM.

B2: human IL-13Rα2 (receptor, UniProt Q14627 27-343, looked up)
chain: DTEIKVNPPQDFEIVDPGYLGYLYLQWQPPLSLDHFKECTVEYELKYRNIGSETWKTIITKNLHYKDGFDLNKGIEAKIHTLLPWQCTNGSEVQSSWAETTYWISPQGIPETKVQDMDCVYYNWQYLLCSWKPGIGVLLDTNYNLFYWYEGLDHALQCVDYIKADGQNIGCRFPYLEASDYKDFYICVNGSSENKPIRSSYFTFQLQNIVKPLPPVYLTFTRESSCEIKLKWSIPLGPIPARCFDYEIEIREDDTTLVTATVENETYTLKTTNETRQLCFVVRSKVNIYCSDDGIWSEWSDKQCWEGEDLSKKTLLR
notes: also called IL-13Ra2; human IL-13 decoy receptor
Q: With B2 as the binder, how does the Kd (Fc-IL13 (1:1 KIH)) read?
A: The Kd was 0.15 nM.

B3: MDNA132.15-PE (other)
chain: GPGPVPPSTAHRELIRELVNITQNQKAPLCNGSMVWSINLTAGMYCAALESLINVSGCSAIEKTQRMLSGFCPHKVSAGQFSSLHVTGRKIEVAQFVKDLLLHLKKLFKEGQFNASGGPEGGSLAALTAHQACHLPLETFTRHRQPRGWEQLEQCGYPVQRLVALYLAARLSWNQVDQVIRNALASPGSGGDLGEAIREQPEQARLALTLAAAESERFVRQGTGNDEAGAANGPADSGDALLERNYPTGAEFLGDGGDVSFSTRGTQNWTVERLLQAHRQLEERGYVFVGYHGTFLEAAQSIVFGGVRARSQDLDAIWRGFYIAGDPALAYGYAQDQEPDARGRIRNGALLRVYVPRSSLPGFYRTSLTLAAPEAAGEVERLIGHPLPLRLDAITGPEEEGGRLETILGWPLAERTVVIPSAIPTDPRNVGGDLDPSSIPDKEQAISALPDYASQPGKPPKDEL
Q: With B3 as the binder, how does the “IC50 (pM), cytotoxicity assay, EMT6-IL13Rα2 cells, 48 h incubation” value [1] read?
A: The value was 2.1 pM.

Q: And the “IC50 (pM), cytotoxicity assay, A375 cells, 48 h incubation” value [2]?
A: Its value is 1.02 pM.

Q: What about the “IC50 (pM), cytotoxicity assay, U87 cells, 48 h incubation” value [2] of the same binder?
A: The value was 11.4 pM.

Q: What about the “IC50 (pM), cytotoxicity assay, EMT6-IL13Rα2 cells, 72 h incubation” value [3] of the same binder?
A: The value was 1.13 pM.

Q: What about the “IC50 (pM), cytotoxicity assay, A375 cells, 72 h incubation” value [4] of the same binder?
A: The value was 1.1 pM.

Q: And the “IC50 (pM), cytotoxicity assay, U87 cells, 72 h incubation” value [4]?
A: Its value is 208 pM.

B4: cpMDNA132.15-PE (other)
chain: MTAGMYCAALESLINVSGCSAIEKTQRMLSGFCPHKVSAGQFSSLHVTGRKIEVAQFVKDLLLHLKKLFKEGQFNGGNGGPGPVPPSTAHRELIRELVNITQNQKAPLCNGSMVWSINLASGGPEGGSLAALTAHQACHLPLETFTRHRQPRGWEQLEQCGYPVQRLVALYLAARLSWNQVDQVIRNALASPGSGGDLGEAIREQPEQARLALTLAAAESERFVRQGTGNDEAGAANGPADSGDALLERNYPTGAEFLGDGGDVSFSTRGTQNWTVERLLQAHRQLEERGYVFVGYHGTFLEAAQSIVFGGVRARSQDLDAIWRGFYIAGDPALAYGYAQDQEPDARGRIRNGALLRVYVPRSSLPGFYRTSLTLAAPEAAGEVERLIGHPLPLRLDAITGPEEEGGRLETILGWPLAERTVVIPSAIPTDPRNVGGDLDPSSIPDKEQAISALPDYASQPGKPPKDEL
Q: Which results are given for B4?
A: IC50 (pM), cytotoxicity assay, EMT6-IL13Rα2 cells, 48 h incubation [1]: 1 pM; IC50 (pM), cytotoxicity assay, A375 cells, 48 h incubation [2]: 1.5 pM; IC50 (pM), cytotoxicity assay, U87 cells, 48 h incubation [2]: 4.2 pM; IC50 (pM), cytotoxicity assay, EMT6-IL13Rα2 cells, 72 h incubation [3]: 1 pM; IC50 (pM), cytotoxicity assay, A375 cells, 72 h incubation [4]: 1.3 pM; IC50 (pM), cytotoxicity assay, U87 cells, 72 h incubation [4]: 7.6 pM
